We go through two variants from IntAct's records for PubMed 23824069.

B1: Phosphatidylinositol 4,5-bisphosphate 3-kinase catalytic subunit gamma isoform (Homo sapiens), P48736 (parent)
chain: MELENYKQPVVLREDNCRRRRRMKPRSAAASLSSMELIPIEFVLPTSQRKCKSPETALLHVAGHGNVEQMKAQVWLRALETSVAADFYHRLGPHHFLLLYQKKGQWYEIYDKYQVVQTLDCLRYWKATHRSPGQIHLVQRHPPSEESQAFQRQLTALIGYDVTDVSNVHDDELEFTRRGLVTPRMAEVASRDPKLYAMHPWVTSKPLPEYLWKKIANNCIFIVIHRSTTSQTIKVSPDDTPGAILQSFFTKMAKKKSLMDIPESQSEQDFVLRVCGRDEYLVGETPIKNFQWVRHCLKNGEEIHVVLDTPPDPALDEVRKEEWPLVDDCTGVTGYHEQLTIHGKDHESVFTVSLWDCDRKFRVKIRGIDIPVLPRNTDLTVFVEANIQHGQQVLCQRRTSPKPFTEEVLWNVWLEFSIKIKDLPKGALLNLQIYCGKAPALSSKASAESPSSESKGKVQLLYYVNLLLIDHRFLLRRGEYVLHMWQISGKGEDQGSFNADKLTSATNPDKENSMSISILLDNYCHPIALPKHQPTPDPEGDRVRAEMPNQLRKQLEAIIATDPLNPLTAEDKELLWHFRYESLKHPKAYPKLFSSVKWGQQEIVAKTYQLLARREVWDQSALDVGLTMQLLDCNFSDENVRAIAVQKLESLEDDDVLHYLLQLVQAVKFEPYHDSALARFLLKRGLRNKRIGHFLFWFLRSEIAQSRHYQQRFAVILEAYLRGCGTAMLHDFTQQVQVIEMLQKVTLDIKSLSAEKYDVSSQVISQLKQKLENLQNSQLPESFRVPYDPGLKAGALAIEKCKVMASKKKPLWLEFKCADPTALSNETIGIIFKHGDDLRQDMLILQILRIMESIWETESLDLCLLPYGCISTGDKIGMIEIVKDATTIAKIQQSTVGNTGAFKDEVLNHWLKEKSPTEEKFQAAVERFVYSCAGYCVATFVLGIGDRHNDNIMITETGNLFHIDFGHILGNYKSFLGINKERVPFVLTPDFLFVMGTSGKKTSPHFQKFQDICVKAYLALRHHTNLLIILFSMMLMTGMPQLTSKEDIEYIRDALTVGKNEEDAKKYFLDQIEVCRDKGWTVQFNWFLHLVLGIKQGEKHSA
partner: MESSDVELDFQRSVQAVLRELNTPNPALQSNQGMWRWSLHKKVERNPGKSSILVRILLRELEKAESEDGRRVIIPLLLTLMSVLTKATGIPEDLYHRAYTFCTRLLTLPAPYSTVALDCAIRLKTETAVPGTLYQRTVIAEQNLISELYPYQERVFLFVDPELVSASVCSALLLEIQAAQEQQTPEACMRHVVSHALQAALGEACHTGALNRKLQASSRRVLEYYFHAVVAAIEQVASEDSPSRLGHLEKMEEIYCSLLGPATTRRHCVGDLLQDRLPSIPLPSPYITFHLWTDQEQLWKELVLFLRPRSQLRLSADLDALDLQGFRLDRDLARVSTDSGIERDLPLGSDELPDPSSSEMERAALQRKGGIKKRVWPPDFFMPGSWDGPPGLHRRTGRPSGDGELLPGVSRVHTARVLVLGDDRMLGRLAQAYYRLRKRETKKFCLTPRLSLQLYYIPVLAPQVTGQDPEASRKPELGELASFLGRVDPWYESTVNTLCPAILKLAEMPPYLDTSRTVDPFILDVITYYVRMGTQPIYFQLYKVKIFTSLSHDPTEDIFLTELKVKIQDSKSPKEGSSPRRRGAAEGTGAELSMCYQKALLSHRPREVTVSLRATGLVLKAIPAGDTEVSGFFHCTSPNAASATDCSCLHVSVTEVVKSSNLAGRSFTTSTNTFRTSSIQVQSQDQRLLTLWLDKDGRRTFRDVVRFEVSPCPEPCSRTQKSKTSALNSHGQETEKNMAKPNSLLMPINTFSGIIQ

Variants of B1 are the subject of the assay. Particulars: with pi3r6_mouse Pik3r6, Q3U6Q4.
On to S582D, for which the “effect of a mutation on the interaction” value was “decreasing interaction strength”.
As for S582E, the “effect of a mutation on the interaction” value is listed as “decreasing interaction strength”.
